Test results published in patent CN113735969A (INST MILITARY MEDICINE ACADEMY MILITARY SCIENCES PLA, dated 2021).

How the values were obtained:
SARS-CoV-2 WT S-ECD蛋白 = SARS-CoV-2 WT S-ECD蛋白 (SARS-CoV-2, UniProt P0DTC2 14-1213)
SARS-CoV-2 Alpha株S-ECD蛋白 = SARS-CoV-2 Alpha株S-ECD蛋白 (SARS-CoV-2 Alpha株 (B.1.1.7))
SARS-CoV-2 Beta株S-ECD蛋白 = SARS-CoV-2 Beta株S-ECD蛋白 (SARS-CoV-2 Beta株 (B.1.351))
SARS-CoV-2 Gamma株S-ECD蛋白 = SARS-CoV-2 Gamma株S-ECD蛋白 (SARS-CoV-2 Gamma株 (P.1))
SARS-CoV-2 Delta株S-ECD蛋白 = SARS-CoV-2 Delta株S-ECD蛋白 (SARS-CoV-2 Delta株 (B.1.617.2))
SARS-CoV-2 Alpha株病毒的S蛋白 = SARS-CoV-2 Alpha株病毒的S蛋白 (SARS-CoV-2 Alpha株 (B.1.1.7)); assay: cell-based or functional assay
SARS-CoV-2 Beta株病毒的S蛋白 = SARS-CoV-2 Beta株病毒的S蛋白 (SARS-CoV-2 Beta株 (B.1.351)); assay: cell-based or functional assay
SARS-CoV-2 Gamma株病毒的S蛋白 = SARS-CoV-2 Gamma株病毒的S蛋白 (SARS-CoV-2 Gamma株 (P.1)); assay: cell-based or functional assay
SARS-CoV-2 Delta株病毒的S蛋白 = SARS-CoV-2 Delta株病毒的S蛋白 (SARS-CoV-2 Delta株 (B.1.617.2)); assay: cell-based or functional assay

B1: 全人源抗SARS-CoV-2单克隆抗体ZWD12 (antibody, V domains shown)
VH: EVQLVESGGGLVQPGGTLRLSCVASGFSFSNYWMSWVRQAPGKGLEWVANIKQDGSETHYVDSVKGRFTISRDNAKNSLYLQMNSLRADDTAVYFCVKDRTDWELIRGYFGHWGQGTQITVSS
VL: DIVMTQTPSSLSLSPGDRATLSCRASENIINYLAWYQQRPGQSPRLLIYDASNRATGIPARFSGSGSGTDFTLTISSLEPEDFAVYYCQQRIIWPPYTFGQGTKVDIKR
Q: With B1 as the binder, how does the Kd (SARS-CoV-2 WT S-ECD蛋白) read?
A: 0.895 nM

Q: And the koff (SARS-CoV-2 WT S-ECD蛋白)?
A: 0.000121 s⁻¹

Q: And the kon (SARS-CoV-2 WT S-ECD蛋白)?
A: 135000 M⁻¹ s⁻¹

Q: And the Kd (SARS-CoV-2 Alpha株S-ECD蛋白)?
A: 0.826 nM

Q: And the koff (SARS-CoV-2 Alpha株S-ECD蛋白)?
A: 0.000111 s⁻¹

Q: What about the kon (SARS-CoV-2 Alpha株S-ECD蛋白) of the same binder?
A: 134000 M⁻¹ s⁻¹

Q: And the Kd (SARS-CoV-2 Beta株S-ECD蛋白)?
A: 0.991 nM

Q: What about the koff (SARS-CoV-2 Beta株S-ECD蛋白) of the same binder?
A: 0.000102 s⁻¹

Q: What about the kon (SARS-CoV-2 Beta株S-ECD蛋白) of the same binder?
A: 103000 M⁻¹ s⁻¹

Q: What about the Kd (SARS-CoV-2 Gamma株S-ECD蛋白) of the same binder?
A: 1.42 nM

Q: And the koff (SARS-CoV-2 Gamma株S-ECD蛋白)?
A: 0.000146 s⁻¹

Q: And the kon (SARS-CoV-2 Gamma株S-ECD蛋白)?
A: 102000 M⁻¹ s⁻¹

Q: And the Kd (SARS-CoV-2 Delta株S-ECD蛋白)?
A: 1.91 nM

Q: And the koff (SARS-CoV-2 Delta株S-ECD蛋白)?
A: 0.000133 s⁻¹

Q: What about the kon (SARS-CoV-2 Delta株S-ECD蛋白) of the same binder?
A: 69600 M⁻¹ s⁻¹

Q: And the “假病毒中和 EC50 (luciferase, HEK293T cells)” value (SARS-CoV-2 Alpha株病毒的S蛋白)?
A: 4.11 ng/mL

Q: And the “假病毒中和 EC50 (luciferase, HEK293T cells)” value (SARS-CoV-2 Beta株病毒的S蛋白)?
A: 3.56 ng/mL

Q: And the “真病毒中和 EC50 (Vero E6 cells, crystal violet)” value (SARS-CoV-2 Beta株病毒的S蛋白)?
A: 69 ng/mL

Q: What about the “假病毒中和 EC50 (luciferase, HEK293T cells)” value (SARS-CoV-2 Gamma株病毒的S蛋白) of the same binder?
A: 3.83 ng/mL

Q: And the “假病毒中和 EC50 (luciferase, HEK293T cells)” value (SARS-CoV-2 Delta株病毒的S蛋白)?
A: 7.29 ng/mL

Q: And the “真病毒中和 EC50 (Vero E6 cells, crystal violet)” value (SARS-CoV-2 Delta株病毒的S蛋白)?
A: 79 ng/mL
